The record followed here is US12534533B2, “Anti-chemokine like receptor 1 humanized antibodies and their therapeutic applications” (OSE IMMUNOTHERAPEUTICS, priority 2019, dated 2026).

One experiment deals with colitis induced by DSS. The experiment can be described thus: acute inflammatory colitis model induced by DSS. In kind it is in vivo, mice. How it is done: FIG. 2. Effect of an anti-CMKLR1 antibody on a mice acute inflammatory colitis model induced by DSS. Mice were injected after 6 days of DSS induction with isotype control hIgG1 (10 μg per mouse) (x), RvE1 (1 μg per mouse) daily (●), or 2G1 antibody (10 μg per mouse) three times (□) for 5 days. Wild type mice, not treated, are represented by an ▾. A. Animal weight loss. B. Animal stool score C. Colon length. D. Resolution index.
Colitis was induced in 8-10 weeks-old-C57Bl/6 male mice by adding 2% (wt/vol) of DSS to the sterile drinking ad libitum water for 6 days. Treatments were injected intra-peritoneally: Isotype control hIgG1 (10 μg per mouse), RvE1 (1 μg per mouse) daily, or 2G1 antibody (10 μg per mouse) three times for 5 days. Colitis follow-up consisting of body weight and stool score (0: normal stool; 4: blood in stool) parameters were performed daily. When mice were euthanized, colon length representing the pathology severity was measured. Resolution index was determined in the different conditions as described in Bannenberg et al., 2005.

Experiment [1] deals with PMN from healthy volunteers. The experiment can be described thus: Percentage of dead PMN (mortality of neutrophils) on coated antibodies. Format: cell-based, human. The settings on record: coated Ab at 10 μg/mL, 24 h; FIG. 26, FIG. 36. How it is done:
[…] Mortality of PMN was analyzed by incubating PMN with specific markers of the mortality and viability and then counted by picture analysis.
FIG. 36—Increase of dead PMN neutrophils in vitro with anti-ChemR23 antibodies coated. PMN from healthy volunteers were incubated in culture medium with coated HEF-LDT52S, HEF-LEF and HDLD antibody variants at 10 μg/mL for 24 h and stained either with a dead/viability kit (LIVE/DEAD (Invitrogen)). The percentages of positive cells were obtained by analyzing the pictures with Fiji software. Isotype control was added as control.
PMN from healthy volunteers were incubated in culture medium with coated Ab at 10 μg/mL for 24 h or 5 h and stained either with a dead/viability kit (LIVE/DEAD (Invitrogen)) or a specific marker of reactive oxygen species (ROS) respectively. The percentages of positive cells were obtained by analyzing the pictures with ImageJ software.
PMN from healthy volunteers were incubated in culture medium with coated HEF-LDT52S, HEF-LEF and HDLD antibody variants at 10 μg/mL for 24 h and stained either with a dead/viability kit (LIVE/DEAD (Invitrogen)). The percentages of positive cells were obtained by analyzing the pictures with Fiji software. Isotype control was added as control.

Another experiment concerns MC38 CRC cell line. The experiment can be described thus: CRC model, tumor cell inoculated (MC38 subcutaneously). Particulars: FIG. 31A. Format: in vivo, mice. The method, then:
Tumor inoculation was performed with 0.5M of MC38 CRC cell line subcutaneously. Mice were injected three times a week with 1 mg/kg of 2G1 or Ctrl Ab for 3 weeks starting at d4 after tumor induction. Cyclophosphamide was injected I.P. once at 100 mg/kg. Tumor development was assessed three times a week and survival curves were established when mice developed a tumor >1000 mm3.

Experiment [2] has as its system lesions in the central nervous system induced by MOG peptide. The experiment can be described thus: autoimmune encephalomyelitis experimental model (EAE). Format: in vivo. From the text: Lesions in the central nervous system were induced by injection of the immunogenic MOG peptide combined with adjuvants.

“Also recorded” adds a separate entry of the source.

B1: 2G1: parental chimeric anti-CMKLR1 antibody: heavy chain variable domain SEQ ID No. 37, light chain variable domain SEQ ID No. 49 (antibody, V domains shown)
VH: EVQLVASGGGLVQPGGSLKLSCAASGFTFSSYGMSWVRQTPDRRLELVATINRYGGSTYYPDSVKGRFTISRDNAKNTLYLQMSSLKSEDTAMYYCPRLIYYGNEGDSWGQGTTLTVSS
VL: QIVLTQSPAIMSASPGEKVTMTCSASSSVSFMHWYQQKSGTSPKRWIYDTTKLTSGVPARFSGSGSGTFYSLTISSMEAEDAATYYCQQWNSKPPLTFGPGTKLELKR
As for B1, the stool score result in the experiment with colitis induced by DSS (0: normal stool, 4: blood in stool, FIG. 2B) is on record as “significantly better”. Further, the Animal weight loss entry in the experiment on colitis induced by DSS (10 μg per mouse i.p. three times for 5 days, vs control antibody or RvE1, FIG. 2A) is “lost significantly less weight”. Also, the “mortality of PMN (percentage of dead PMN)” value in experiment [1] was “increase the mortality of PMN; also recorded: accelerate the death of PMN”. Also, the tumor volume result in the experiment with MC38 CRC cell line (1 mg/kg three times a week for 3 weeks starting at d4, vs control antibody) was “reduced”. In the experiment with MC38 CRC cell line (in several cases), the remission result was “complete remission”. Also, the Weight variation overtime result in experiment [2] (curative administration, 1 mg/kg from clinical score 2, FIG. 32A) is on record as “does not lead to the reduction of the weight”. Also, in experiment [2] (ten-day posttreatment), the “illness score lower than control” value is given as “approximately 30%”. The illness score result in experiment [2] (vs control antibody, FIG. 32B) was “significantly reduced”.
